Reference: US10758588 (PURDUE RESEARCH FOUNDATION, dated 2020)
* marks the point of attachment. 5FAM = O=C1OC2(c3ccc(O)cc3Oc3cc(O)ccc32)c2ccc(C(=O)*)cc21; Ahx = NCCCCCC(=O)O

Target: T1, N-terminal His-tag PCNA (recombinant (His)6-PCNA fusion protein; Proliferating Cell Nuclear Antigen) (Homo sapiens (Human), UniProt P12004 1-261)
T1 construct: Expressed in E. coli BL21 (DE3) from vector pEV-L8, which carries an N-terminal His-tag and a TEV protease site; No tag cleavage is described; also called His-tagged PCNA; recombinant PCNA
Test: fluorescence polarization; fixed FAM-PL (5 nM) titrated with two-fold increasing recombinant His-tagged PCNA
From the text: [a]N-substituted side chains listed from N-terminus to most C-terminal [b]as determined by high resolution electrospray ionization or MALDI-TOF [c]based on dry mass recovery after HPLC purification After synthesis and purification, peptoids were screened in a fluorescence polarization (FP) assay to find ligands that disrupted the interaction between His-tagged PCNA and fluorescein-labeled Pogo Ligase peptide (FAM-PL) (Kontopidis, G., et al. Proc. Natl. Acad. Sci. U.S.A. 2005, 102 (6), 1871-1876). In the design of the assay, conditions were adopted from Pedley et al., 2016, to improve the dynamic range between bound and unbound FAM-PL. While an acceptable Z-score was determined using the original 10 nM peptide and 100 nM PCNA (FIG. 4), an improved dynamic range was established by adjusting the ligand and receptor concentrations. […]
Increasing amounts of recombinant (His)_6-PCNA protein (SEQ ID NO: 3) were prepared in FP binding buffer (25 mM HEPES at pH 7.4, 10% glycerol, 0.01% Triton X-100), with an 11-step 2-fold dilution series, and a top concentration of 30 μM. […] Fluorescence polarization and resultant anisotropy were measured on a BioTek Synergy 4 Multi-Detection Microplate Reader using an excitation filter of 485 nm and an emission filter of 530 nm, each with a 20 nm band-pass.

T1 sequence (P12004 other isoform, or with tags, fused parts or gaps limits assumed): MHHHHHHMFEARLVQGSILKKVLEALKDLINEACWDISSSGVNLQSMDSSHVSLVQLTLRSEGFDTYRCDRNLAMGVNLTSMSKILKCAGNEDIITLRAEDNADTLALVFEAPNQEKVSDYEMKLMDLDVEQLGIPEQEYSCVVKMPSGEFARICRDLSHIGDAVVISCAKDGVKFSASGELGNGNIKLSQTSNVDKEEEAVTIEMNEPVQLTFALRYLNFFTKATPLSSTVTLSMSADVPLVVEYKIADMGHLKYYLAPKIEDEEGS

Kd: 107 nM
B1: 5-FAM-labeled POGO ligase peptide (FAM-PL) (peptide)
peptide: {5FAM-Ahx}-SAVLQKKITDYFHPKK-NH2
notes: also called fluorescein-labeled Pogo Ligase peptide; PL peptide
